Assay [1] deals with T1, recombinant human CD155-Fc fusion protein, mutant (Ala67Thr) (human, UniProt P15151 21-343, Ala67Thr).
T1 sequence (looked up): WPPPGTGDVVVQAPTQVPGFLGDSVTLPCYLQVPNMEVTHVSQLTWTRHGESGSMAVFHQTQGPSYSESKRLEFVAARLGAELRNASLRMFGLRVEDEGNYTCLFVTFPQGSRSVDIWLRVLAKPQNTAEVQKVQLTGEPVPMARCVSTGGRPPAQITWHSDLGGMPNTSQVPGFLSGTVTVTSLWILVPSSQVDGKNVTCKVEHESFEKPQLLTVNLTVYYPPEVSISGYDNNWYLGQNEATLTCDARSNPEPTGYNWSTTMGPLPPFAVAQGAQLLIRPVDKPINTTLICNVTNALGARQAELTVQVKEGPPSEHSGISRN
Briefly: BLI.

Assay [2] addresses T2, recombinant human CD155-Fc fusion protein, WT (human, UniProt P15151 21-343).
T2 sequence (looked up): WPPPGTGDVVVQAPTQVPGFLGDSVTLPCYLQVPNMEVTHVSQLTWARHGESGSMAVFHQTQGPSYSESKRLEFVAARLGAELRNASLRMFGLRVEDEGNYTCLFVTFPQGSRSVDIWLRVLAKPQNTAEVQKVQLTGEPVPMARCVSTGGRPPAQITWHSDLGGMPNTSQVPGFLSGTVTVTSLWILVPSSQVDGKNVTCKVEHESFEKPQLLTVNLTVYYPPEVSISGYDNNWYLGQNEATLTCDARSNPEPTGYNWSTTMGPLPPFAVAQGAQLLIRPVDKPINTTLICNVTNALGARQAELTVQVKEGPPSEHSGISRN
Put plainly: BLI.

B1: His-tagged recombinant human DNAM-1 (receptor, UniProt Q15762 19-254, looked up)
chain: EEVLWHTSVPFAENMSLECVYPSMGILTQVEWFKIGTQQDSIAIFSPTHGMVIRKPYAERVYFLNSTMASNNMTLFFRNASEDDVGYYSCSLYTYPQGTWQKVIQVVQSDSFEAAVPSNSHIVSEPGKNVTLTCQPQMTWPVQAVRWEKIQPRQIDLLTYCNLVHGRNFTSKFPRQIVSNCSHGRWSVIVIPDVTVSDSGLYRCYLQASAGENETFVMRLTVAEGKTDNQYTLFVA
With B1, the binding result in assay [1] and in assay [2] was “binds” each time.

The record behind these values is PMC9633295 (Cancer Science, 2022).
